# From patent US20200407442A1 (WUXI BIOLOGICS IRELAND, published 2020)
# T1: full-length human LAG-3 on cells (human, UniProt P18627 23-525)
# T1 construct: Expressed on Flp-In-293, CHO or 293F transfectants; also called hPro1.FL; cell surface human LAG-3
# T1 sequence: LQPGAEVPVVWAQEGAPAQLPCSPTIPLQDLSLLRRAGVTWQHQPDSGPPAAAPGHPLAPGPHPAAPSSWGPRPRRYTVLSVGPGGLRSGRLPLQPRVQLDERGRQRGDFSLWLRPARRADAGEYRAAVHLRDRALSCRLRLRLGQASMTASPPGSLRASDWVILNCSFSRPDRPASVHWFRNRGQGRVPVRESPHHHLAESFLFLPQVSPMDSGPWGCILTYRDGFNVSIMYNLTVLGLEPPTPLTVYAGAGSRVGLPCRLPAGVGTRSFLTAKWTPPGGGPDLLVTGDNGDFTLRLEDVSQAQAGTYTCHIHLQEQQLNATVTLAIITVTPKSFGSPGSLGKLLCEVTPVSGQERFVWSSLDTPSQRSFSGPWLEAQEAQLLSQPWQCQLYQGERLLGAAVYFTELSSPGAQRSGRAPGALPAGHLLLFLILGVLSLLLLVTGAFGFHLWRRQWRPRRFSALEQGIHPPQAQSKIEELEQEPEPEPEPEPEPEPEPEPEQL
# T2: Variant 7: xPro1.FL-x7 (human; mouse)
# T2 construct: Chimeric full-length LAG-3 on transfected 293F cells
# T2 chain: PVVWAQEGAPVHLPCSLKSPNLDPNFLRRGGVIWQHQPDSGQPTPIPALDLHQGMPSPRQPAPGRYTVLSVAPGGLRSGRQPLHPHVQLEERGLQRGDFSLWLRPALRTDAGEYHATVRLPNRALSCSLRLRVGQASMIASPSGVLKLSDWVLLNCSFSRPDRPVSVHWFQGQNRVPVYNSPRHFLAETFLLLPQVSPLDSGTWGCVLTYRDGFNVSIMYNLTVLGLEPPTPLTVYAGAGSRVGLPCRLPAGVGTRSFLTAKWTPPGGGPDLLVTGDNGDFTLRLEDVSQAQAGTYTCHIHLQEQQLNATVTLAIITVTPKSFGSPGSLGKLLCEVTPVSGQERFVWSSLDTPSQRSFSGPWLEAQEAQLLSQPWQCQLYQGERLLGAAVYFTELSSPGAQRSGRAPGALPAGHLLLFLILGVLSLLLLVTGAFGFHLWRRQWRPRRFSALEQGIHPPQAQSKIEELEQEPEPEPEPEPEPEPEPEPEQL
# T3: full-length mouse LAG-3 on cells (mouse, UniProt Q61790 24-521)
# T3 construct: also called mPro1.FL; murine LAG-3
# T3 sequence: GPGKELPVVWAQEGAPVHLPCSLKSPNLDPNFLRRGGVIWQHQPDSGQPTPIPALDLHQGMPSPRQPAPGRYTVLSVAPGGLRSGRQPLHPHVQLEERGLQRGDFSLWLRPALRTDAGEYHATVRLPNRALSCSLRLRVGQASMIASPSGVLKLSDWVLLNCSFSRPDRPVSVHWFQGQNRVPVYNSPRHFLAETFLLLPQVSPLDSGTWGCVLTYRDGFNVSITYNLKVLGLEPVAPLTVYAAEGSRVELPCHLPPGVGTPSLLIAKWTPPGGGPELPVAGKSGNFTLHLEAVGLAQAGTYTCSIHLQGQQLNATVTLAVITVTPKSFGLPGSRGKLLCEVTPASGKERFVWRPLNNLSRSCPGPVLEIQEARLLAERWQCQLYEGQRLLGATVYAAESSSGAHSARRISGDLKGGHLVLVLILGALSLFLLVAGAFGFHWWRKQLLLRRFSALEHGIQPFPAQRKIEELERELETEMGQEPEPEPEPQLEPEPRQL
# T4: Variant 1: xPro1.FL-x1 (human; mouse)
# T4 construct: Chimeric full-length LAG-3 on transfected 293F cells
# T4 chain: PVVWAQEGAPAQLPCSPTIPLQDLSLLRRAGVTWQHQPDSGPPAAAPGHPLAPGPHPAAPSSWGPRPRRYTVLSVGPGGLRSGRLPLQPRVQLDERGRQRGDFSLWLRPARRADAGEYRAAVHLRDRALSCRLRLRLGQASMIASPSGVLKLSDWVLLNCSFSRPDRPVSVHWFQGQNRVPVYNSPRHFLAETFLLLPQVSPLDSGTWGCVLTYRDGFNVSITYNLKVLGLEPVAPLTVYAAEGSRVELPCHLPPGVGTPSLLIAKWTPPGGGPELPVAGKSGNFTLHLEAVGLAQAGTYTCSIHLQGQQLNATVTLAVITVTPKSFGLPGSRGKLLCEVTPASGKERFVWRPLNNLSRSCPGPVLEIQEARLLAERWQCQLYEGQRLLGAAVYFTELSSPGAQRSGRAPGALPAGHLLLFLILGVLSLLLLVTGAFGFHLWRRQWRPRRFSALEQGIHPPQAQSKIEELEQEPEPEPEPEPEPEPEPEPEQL
# B1: 1.53.3-uAb-IgG4k (antibody, V domains shown)
# VH: QVQLQQWGAGLLKPSETLSLTCGVYGGSFSGYYWSWIRQPPGMGLEWIGEINHRGNTNYNPSLKSRVTISEDTSKNQFSLRLSSVTAADTAVYFCTRGEDYSDYDYYGDFWGQGTLVTVSS
# VL: EIVLTQSPATLSLSQGERATLSCRASQSISSYLAWYQQKPGQAPRLLIYAASNRATGIPARFSGSGSGTDFTLTISSLEPEDFAIYYCQQRSNWPLTFGGGTKVEIK
# notes: Fully human antibody from OMT rats; IgG4 kappa by its name
# What was measured:
# [1] = target: T1, full-length human LAG-3 on cells; assay: FACS competition on Flp-In-293 cells expressing human LAG-3: biotinylated BMK7 at 1 ug/mL, serially diluted antibody, Streptavidin-PE
# Protocol: The binding epitope of LAG-3 antibodies was binned against benchmark antibodies BMK1, BMK7 and BMK5 by FACS assay. Flp-In-293 cells expressing human LAG-3 at the cell surface were incubated with biotinylated benchmark antibodies at concentration of 1 μg/mL for 1 hour, followed by the adding of serially diluted LAG-3 antibodies. Streptavidin-PE antibody (Jackson Immunoresearch Lab) was used to detect the binding of benchmark antibodies to cells. The MFI was evaluated by flow cytometry and analyzed by FlowJo.
# Variant 7: xPro1.FL-x7 = target: T2, Variant 7: xPro1.FL-x7; assay: FACS, 1 ug/mL antibody, transfected 293F cells
# [2] = target: T3, full-length mouse LAG-3 on cells; assay: FACS, 1 ug/mL antibody, transfected 293F cells
# Variant 1: xPro1.FL-x1 = target: T4, Variant 1: xPro1.FL-x1; assay: FACS, 1 ug/mL antibody, transfected 293F cells
binder,measurement,setting,value
B1,IC50 (read off the curve),[1],~3 nM
same,MFI,Variant 7: xPro1.FL-x7,39.3
same,PE+ %,Variant 7: xPro1.FL-x7,1.52%
same,MFI,[2],43.9
same,PE+ %,[2],1.1%
same,MFI,Variant 1: xPro1.FL-x1,8580
same,PE+ %,Variant 1: xPro1.FL-x1,97%
